Holding throughout (details): both partners purified
Assay [1] deals with T1, extracellular domain of human RAGE (residues 1 to 344) (human, UniProt Q15109 23-344).
T1 construct: signal peptide in the construct; receptor for advanced glycation end products, human, extracellular domain, residues 1 to 344; also called receptor for advanced glycation end products; recombinant RAGE; source: bought: Sino Biological Inc
Put plainly: SPR; OpenSPR, series of Fig. 10A; pCTS-L immobilised on NTA sensor chip; TLR4 or RAGE as analyte; reference values without mAb20 (not told whether with c-mAb preincubated or with no antibody). A general note: Surface plasmon resonance follows binding to a sensor surface in real time, without labels.

The target in assay [2] is T2, human TLR4 (ECD-His Tag, residues 1 to 631) (human, UniProt O00206 24-631).
T2 construct: signal peptide in the construct; Toll-like receptor 4, human, extracellular domain, residues 1 to 631; also called Toll-like receptor 4; recombinant TLR4; source: bought: Sino Biological Inc
T2 sequence (O00206 24-631): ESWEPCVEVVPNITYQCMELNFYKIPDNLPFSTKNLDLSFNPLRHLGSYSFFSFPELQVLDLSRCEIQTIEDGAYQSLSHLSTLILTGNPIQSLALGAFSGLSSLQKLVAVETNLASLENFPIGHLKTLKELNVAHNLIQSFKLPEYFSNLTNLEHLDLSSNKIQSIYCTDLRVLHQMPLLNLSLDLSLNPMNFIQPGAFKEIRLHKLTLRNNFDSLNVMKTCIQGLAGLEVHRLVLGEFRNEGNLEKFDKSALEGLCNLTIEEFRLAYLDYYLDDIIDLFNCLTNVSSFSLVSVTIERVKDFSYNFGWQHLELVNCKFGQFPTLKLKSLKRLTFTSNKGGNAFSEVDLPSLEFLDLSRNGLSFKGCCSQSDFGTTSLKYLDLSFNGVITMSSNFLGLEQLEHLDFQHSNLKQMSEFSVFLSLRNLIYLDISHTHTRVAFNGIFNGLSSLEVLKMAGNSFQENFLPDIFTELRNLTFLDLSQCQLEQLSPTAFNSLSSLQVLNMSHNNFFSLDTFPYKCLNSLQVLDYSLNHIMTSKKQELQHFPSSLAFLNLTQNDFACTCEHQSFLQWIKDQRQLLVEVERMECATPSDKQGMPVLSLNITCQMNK
The description is as above.

In assay [3] the target is T1, extracellular domain of human RAGE …. Put plainly: SPR; OpenSPR (Nicoya); human pCTS-L immobilised on NTA sensor chip; human TLR4 or RAGE applied as analyte at various concentrations; Kd estimated with TraceDrawer.
Assay [4] has as its target T2, human TLR4 (ECD-His Tag, residues 1 to …). The description is as above.
Assay [5] concerns the target T1, extracellular domain of human RAGE …. Put plainly: SPR; OpenSPR (Nicoya); TLR4 (residues 1 to 631) or RAGE extracellular domain (residues 1 to 344) immobilised on NTA sensor chip; pCTS-L applied as analyte at different concentrations; representative Kd.
In assay [6] the target is T2, human TLR4 (ECD-His Tag, residues 1 to …). The description is as above.

T1 sequence (Q15109 23-344): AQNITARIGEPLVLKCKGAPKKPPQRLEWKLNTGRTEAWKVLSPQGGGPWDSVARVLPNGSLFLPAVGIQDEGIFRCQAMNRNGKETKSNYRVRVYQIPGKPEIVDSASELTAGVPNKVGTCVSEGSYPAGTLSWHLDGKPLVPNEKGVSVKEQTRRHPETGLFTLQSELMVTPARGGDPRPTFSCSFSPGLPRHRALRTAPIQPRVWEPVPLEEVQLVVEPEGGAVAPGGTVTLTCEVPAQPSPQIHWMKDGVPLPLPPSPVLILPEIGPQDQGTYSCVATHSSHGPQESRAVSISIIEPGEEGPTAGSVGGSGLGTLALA

B1: recombinant human procathepsin L (pCTS-L) (natural protein, UniProt P07711 18-333, looked up)
chain: TLTFDHSLEAQWTKWKAMHNRLYGMNEEGWRRAVWEKNMKMIELHNQEYREGKHSFTMAMNAFGDMTSEEFRQVMNGFQNRKPRKGKVFQEPLFYEAPRSVDWREKGYVTPVKNQGQCGSCWAFSATGALEGQMFRKTGRLISLSEQNLVDCSGPQGNEGCNGGLMDYAFQYVQDNGGLDSEESYPYEATEESCKYNPKYSVANDTGFVDIPKQEKALMKAVATVGPISVAIDAGHESFLFYKEGIYFEPDCSSEDMDHGVLVVGYGFESTESDNNKYWLVKNSWGEEWGMGGYVKMAKDRRNHCGIASAASYPTV
notes: procathepsin L (pCTS-L), human, recombinant; A HEK293-made pCTS-L is named only for stimulating PBMCs; also called proCTS-L; human pCTS-L; source: recombinant, highly purified
What is called Kd is the constant that tells how readily two partners part at equilibrium. For B1, the dissociation constant (Kd) was 3.1 ± 0.4 nM in assay [1]; 20.3 ± 2.3 nM in assay [2]; 3.5 nM in assay [3]; 20.2 nM in assay [4]; 3 nM in assay [5]; 64.4 nM in assay [6].

These data come from publication PMC9897667, “Identification of procathepsin L (pCTS-L)–neutralizing monoclonal antibodies to treat potentially lethal sepsis” (Science Advances, 2023).
